Test results from article PMC12103069 (2025).

Target: UBE2L3 wild type (Mus musculus)
Experiment: MST

UBE2L3 wild type (Mus musculus), sequence (B2R4A7 whole entry): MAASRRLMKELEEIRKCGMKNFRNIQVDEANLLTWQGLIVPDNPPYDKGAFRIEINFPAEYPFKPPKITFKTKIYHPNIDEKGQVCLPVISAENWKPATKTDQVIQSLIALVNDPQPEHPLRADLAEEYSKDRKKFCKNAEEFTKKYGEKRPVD

B1: GST-MuRF1RM (MuRF1 amino acids 1-115, RING and MFC domains) (domain or fragment)
chain: MDYKSGLIPDGNAMENLEKQLICPICLEMFTKPVVILPCQHNLCRKCANDIFQAANPYWTNRGGSVSMSGGRFRCPSCRHEVIMDRHGVYGLQRNLLVENIIDIYKQECSSRPLQ
modifications: red fluorescent dye NT-647, covalently, by amine coupling (in the fluorescence assay only)
Work on B1 yielded a Kd of 150 nM.
